Values of other authors, collected in patent publication US6191103A, “Methods for enhancing thrombolysis in a mammal” (priority 1997, dated 2001).

Conditions: in vivo

## tPA: tissue-type plasminogen activator, fibrinolytic agent
  plasma half-life: around 5 minutes
